From US9266952B2, “Antibodies against ROR1 and uses thereof” (KANCERA AB, priority 2010, dated 2016)

Test system: primary patient CLL cells
Assay: Primary patient CLL cells i.v. in irradiated NOD.SCID mice, spleen
Format: in vivo
Settings: 10 mg/kg i.p. from day 5-7 after transfer, sacrificed 3-7 days later, versus isotype control
Method: Primary patient CLL cells are intravenously injected into immuno-deficient NOD. SCID mice. The CLL cells home to the spleen and there form proliferating clusters, very similar to human disease. After allowing to settle in the spleen for 5-7 days, the mice were treated with 10 mg/kg anti-ROR1 antibodies every third day and terminated after (A) 7 days, n=7 mice/group; (B) 7 days, n=9-10 mice/group; (C) 4 days, n=8 mice/group; (D) 3 days, n=5 mice/group. At termination the number of CLL cells is quantified in spleen using FACS staining of human CD45, CD19 and CD20. Each figure represents cells from individual CLL patients.
NOD.SCID mice received whole-body irradiation of 1 Gy 1 day prior to injection of primary patient cells.
PBMCs were isolated from peripheral blood of four CLL patients using the Ficoll Hypaque technique. Thereafter, 100×10^6 cells was injected i.v into irradiated NOD.SCID mice. The mice were treated i.p with 10 mg/kg of the ROR1 specific mAb 009-G03, or irrelevant negative control mAb at day 5-7 after transfer of cells to mice and sacrificed 3-7 days later. […]
Spleens were dissected out, minced, and lysed for red blood cells. The cell suspension were stained with fluorochrome conjugated mAb's recognizing human CD45, CD19 or CD20 and CLL cells were quantified as being either CD45^+CD19^+ or CD45^+CD20^+. […]

B1: 010-D06: ROR1 specific mAb, VH SEQ ID NO: 27, VL SEQ ID NO: 28 (FIG. 15) (antibody, listed as Mus musculus, V domains shown)
VH: EVQLLESGGGLVQPGGSLRLSCAASGFTFRDYGMHWVRQAPGKGLEWVSAISGSGGSTFYADSVKGRFTISRDNSKNTLYLQMNSLRAEDTAVYYCARGRSAGSMGYFDYWGQGTLVTVSS
VL: QSVLTQPPSASGTPGQRVTISCTGSSSNIGAGYDVHWYQQLPGTAPKLLIYGNSNRPSGVPDRFSGSKSGTSASLAISGLRSEDEADYYCAAWDDSLNGWVFGGGTKLTVLG
- number of grafted CLL cells in the spleen: significantly reduces the number of grafted CLL cells in the spleen
